{
  "source": "paper PMC7083227",
  "about": "(Immunity, 2020)",
  "proteins": {"B1": {"name": "HA-tagged BTN2A1 (surface biotinylation experiment) (natural protein, human, UniProt Q7KYR7 29-527, looked up)", "chain": "QFIVVGPTDPILATVGENTTLRCHLSPEKNAEDMEVRWFRSQFSPAVFVYKGGRERTEEQMEEYRGRTTFVSKDISRGSVALVIHNITAQENGTYRCYFQEGRSYDEAILHLVVAGLGSKPLISMRGHEDGGIRLECISRGWYPKPLTVWRDPYGGVAPALKEVSMPDADGLFMVTTAVIIRDKSVRNMSCSINNTLLGQKKESVIFIPESFMPSVSPCAVALPIIVVILMIPIAVCIYWINKLQKEKKILSGEKEFERETREIALKELEKERVQKEEELQVKEKLQEELRWRRTFLHAVDVVLDPDTAHPDLFLSEDRRSVRRCPFRHLGESVPDNPERFDSQPCVLGRESFASGKHYWEVEVENVIEWTVGVCRDSVERKGEVLLIPQNGFWTLEMHKGQYRAVSSPDRILPLKESLCRVGVFLDYEAGDVSFYNMRDRSHIYTCPRSAFSVPVRPFFRLGCEDSPIFICPALTGANGVTVPEEGLTLHRVGTHQSL", "modifications": "surface lysines biotinylated with EZ-Link Sulfo NHS-LC-biotin", "notes": "Butyrophilin-2A1 (BTN2A1), human; also called CHO-cell expressed BTN2A1; cell surface BTN2A1"}},
  "molecular_target": "the molecule itself",
  "assay": "non-reducing and reducing SDS-PAGE after surface biotinylation and anti-HA immunoprecipitation; cells surface biotinylated, lysed in 1% NP40 ± 10 mM iodoacetamide, HA-tagged protein precipitated with anti-HA resin, blot with streptavidin-HRP; with or without BTN3A1, with or without Zol",
  "data": [
    {"protein": "B1", "values": [
      {"measurement": "stoichiometry N", "result": 2}
    ]}
  ]
}
